Here are results for 13 molecules from patent publication US20140154256A1 (published 2014).

A word on the Kd: it is the equilibrium constant for the complex coming apart.

The target of experiment [1] is T1, recombinant human IL-1β (human, UniProt P01584 117-269). As to the kind of experiment: cell-based or functional assay.
Experiment [2] addresses T2, human IL-18 (human, UniProt Q14116 37-193).
T2 construct: also called hIL-18
Put plainly: SPR (Biacore). Background: In SPR one partner is held on a chip, and binding of the other changes the refractive index at the surface.

The target of experiment [3] is T3, human IL-12 (human, UniProt P29459 23-219; P29460 23-328).
T3 construct: also called hIL-12
T3 sequence (looked up) 1: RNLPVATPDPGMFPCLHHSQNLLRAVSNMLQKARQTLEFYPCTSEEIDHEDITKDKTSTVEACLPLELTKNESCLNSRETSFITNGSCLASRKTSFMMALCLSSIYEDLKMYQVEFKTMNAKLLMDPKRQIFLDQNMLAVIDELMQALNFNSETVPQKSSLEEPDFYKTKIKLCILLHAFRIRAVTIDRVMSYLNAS
T3 sequence (looked up) 2: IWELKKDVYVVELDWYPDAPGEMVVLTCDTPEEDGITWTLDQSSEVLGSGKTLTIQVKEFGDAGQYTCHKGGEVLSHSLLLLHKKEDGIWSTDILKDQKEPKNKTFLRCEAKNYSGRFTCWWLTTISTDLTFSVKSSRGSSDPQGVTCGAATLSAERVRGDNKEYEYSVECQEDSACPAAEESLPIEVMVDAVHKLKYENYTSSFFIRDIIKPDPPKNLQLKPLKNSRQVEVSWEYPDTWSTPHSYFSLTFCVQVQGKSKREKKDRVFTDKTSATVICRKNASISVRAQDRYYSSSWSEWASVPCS
Put plainly: SPR (Biacore).

Experiment [4] deals with T2, human IL-18. As to the kind of experiment: cell-based or functional assay.
In experiment [5] the target is T3, human IL-12. As to the kind of experiment: cell-based or functional assay.
For experiment [6], the target named is T4, recombinant human IL-1α (human, UniProt P01583 113-271).
T4 sequence (looked up): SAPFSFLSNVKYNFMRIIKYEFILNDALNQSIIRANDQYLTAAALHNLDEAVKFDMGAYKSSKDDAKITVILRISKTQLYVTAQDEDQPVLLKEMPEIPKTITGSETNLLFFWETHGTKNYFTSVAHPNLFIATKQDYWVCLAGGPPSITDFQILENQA
Put plainly: cell-based or functional assay.

The target of experiment [7] is T1, recombinant human IL-1β. Put plainly: cell-based or functional assay. This is another data set of the same source.
Experiment [8] has as its target T4, recombinant human IL-1α. Put plainly: SPR (Biacore).
Experiment [9] has as its target T1, recombinant human IL-1β. As to the kind of experiment: SPR (Biacore).
The target in experiment [10] is mouse IL-1β (mouse, UniProt P10749 118-269). As to the kind of experiment: cell-based or functional assay.
Sequence of mouse IL-1β (P10749 118-269 limits assumed): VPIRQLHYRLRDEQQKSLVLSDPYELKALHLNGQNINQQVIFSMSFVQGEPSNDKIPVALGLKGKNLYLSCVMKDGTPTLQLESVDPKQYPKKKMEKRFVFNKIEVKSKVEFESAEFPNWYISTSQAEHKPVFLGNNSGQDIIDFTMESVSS
For experiment [11], the target named is T4, recombinant human IL-1α. As to the kind of experiment: cell-based or functional assay. The source holds these as a separate data set.
Experiment [12] addresses T5, mouse IL-1α (mouse, UniProt P01582 115-270).
T5 sequence (looked up): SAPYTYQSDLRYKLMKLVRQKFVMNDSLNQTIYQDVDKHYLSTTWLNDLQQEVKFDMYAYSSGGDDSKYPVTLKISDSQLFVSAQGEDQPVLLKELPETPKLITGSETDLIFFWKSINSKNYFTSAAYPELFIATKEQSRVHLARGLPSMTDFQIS
As to the kind of experiment: cell-based or functional assay.

B1: murine monoclonal antibody 13F5.G5 (anti-hIL-1β) (antibody, V domains shown)
VH: QVQLQQSGAELVRPGSSVKISCKASGYAFSSYWMNWVKQRPGQGLEWIGQIYPGDGDTNYNGKFKGKATLTADKSSSTSYMQLSGLTSEDSAMYFCVRFPTGNDYYAMDYWGQGTSVTVSS
VL: NIVLTQSPASLAVSLGQRATISCRASESVDSYGNSYMHWYQQKPGQPPKLLIYLASNLESGVPARFSGSGSRTDFTLTIDPVEADDAATYYCQQNNEDPFTFGSGTKLEIKR
On to B1, for which the “IC50 (M), MRC-5 bioassay (IL-8 production)” value (shortened to “IC50 (M), MRC-5 bioassay”) in experiment [1] amounted to 6e-10 M.

B2: DVD1812SL (anti-IL12/IL18 DVD-Ig, 18-12-C, short linker) (bispecific antibody, human IgG1, kappa)
heavy: not shown
light: EIVMTQSPATLSVSPGERATLSCRASESISSNLAWYQQKPGQAPRLFIYTASTRATDIPARFSGSGSGTEFTLTISSLQSEDFAVYYCQQYNNWPSITFGQGTRLEIKRTVAAPQSVLTQPPSVSGAPGQRVTISCSGSRSNIGSNTVKWYQQLPGTAPKLLIYYNDQRPSGVPDRFSGSKSGTSASLAITGLQAEDEADYYCQSYDRYTHPALLFGTGTKVTVLGTVAAPSVFIFPPSDEQLKSGTASVVCLLNNFYPREAKVQWKVDNALQSGNSQESVTEQDSKDSTYSLSSTLTLSKADYEKHKVYACEVTHQGLSSPVTKSFNRGEC
notes: also called DVD1812HC-SL / DVD1812LC-SL
In the case of B2, the Kd in [2] came to 0.191 nM; in experiment [3], 1.82 nM. Also, the “Potency (IC50, M), KG-1 bioassay (IFN-γ production)” value in [4] came to 4e-11 M. Moreover, the “Potency (IC50, M), IL-12-induced IFN-γ production by PHA blast cells” value in experiment [5] came out at 3.66e-10 M.

B3: hIL-1α/bDVD6a-Ig (bispecific antibody, human IgG1, kappa)
heavy: not shown
light: QIVLTQSPALMSASPGEKVTMTCSASSSVNYMYWYQQKPRSSPKPWIYLTSNLASGVPARFSGSGSGTSYSLTISSMEAEDAATYYCQQWNSNPYTFGGGTKLEMKRTVAAPSVFIFPPQIVLTQSPAIMSASPGEKVTITCSASSSVSYMHWFQQKPGASPKLWIYSTSNLASGVPARFSGSGSGTSYSLTVSRMEAEDAATYYCQQRSTYPYTFGGGTKLEIKRTVAAPSVFIFPPSDEQLKSGTASVVCLLNNFYPREAKVQWKVDNALQSGNSQESVTEQDSKDSTYSLSSTLTLSKADYEKHKVYACEVTHQGLSSPVTKSFNRGEC
notes: 6H3.1A4.3E11 - long linker - 6B12.4F6 - C (a-b-C); also called hIL-1a/b DVD6a-Ig
As to B3, the “Potency (IC50) M, MRC-5 bioassay” value turned out to be 2.3 nM in experiment [6] and 70 nM in [7]. For the same molecule, the Kd was found to be 1.06 nM in [8] and 2.09 nM in experiment [9].

B4: mouse anti-mouse IL-1β mAb clone 10G11 (antibody, V domains shown)
VH: EVQLQQSGPELVKPGTSVKMSCKTSGYTFTSYVMHWVKQKPGQGLEWIGYIIPYNDNTKYNEKFKGKATLTSDKSSSTAYMELSSLTSEDSAVYYCARRNEYYGSSFFDYWGQGTTLTVSS
VL: DIQMTQSPASLSASVGETVTITCRGSGILHNYLVWYQQKQGKSPQLLVYSAKILADGVPSRFSGSGSGTQYSLKINSLQPEDFGSYYCQHFWSTPFTFGSGTKLEIKR
For the molecule B4, in experiment [10], the “IC50 (M), in vitro potency (assay not described)” value is 3.7e-10 M.

B5: murine monoclonal antibody 6H3.1A4.3E11 (anti-hIL-1α) (antibody, V domains shown)
VH: QVQLQQPGAELVRPGASVKLSCKASGYTFTTYWMNWVKQRPEQGLEWIGRIDPYDSETLYSQKFKDTAILTVDKSSSTAYMQLSSLTSEDSAVYYCARYGFDYWGQGTTLTVSS
VL: QIVLTQSPALMSASPGEKVTMTCSASSSVNYMYWYQQKPRSSPKPWIYLTSNLASGVPARFSGSGSGTSYSLTISSMEAEDAATYYCQQWNSNPYTFGGGTKLEMKR
B5: the “IC50 (M), MRC-5 bioassay” value in experiment [11] came to 2.4e-10 M.

B6: murine monoclonal antibody 3D12.E3 (anti-hIL-1α) (antibody, V domains shown)
VH: QIQLVQSGPELKKPGETVKISCKASGYTFRNYGMNWVKQAPGKDLKRMAWINTYTGESTYADDFKGRFAFSLETSASTAYLQINNLKNEDTATYFCARGIYYYGSSYAMDYWGQGTSVTVSS
VL: NIQMTQTTSSLSASLGDRVTISCRASQDISNCLNWYQQKPDGTVKLLIYYTSRLHSGVPSRFSGSGSGTDYSLTISNLEQEDIATYFCQQGKTLPYAFGGGTKLEINR
For B6, the “IC50 (M), MRC-5 bioassay” value in experiment [11] amounted to 6.7e-10 M.

B7: mouse anti-mouse IL-1α mAb clone 9H10 (antibody, V domains shown)
VH: QVILKESGPGILQPSQTLSLTCSFSGFSLSTYGTAVNWIRQPSGKGLEWLAQIGSDDRKLYNPFLKSRITLSEDTSNSQVFLKITSVDTEDSATYYCANGVMEYWGLGTSVTVSS
VL: SIVMTQTPKFLLVSAGDRVTITCKASQSVNHDVAWYQQMPGQSPKLLIYFASNRYTGVPDRFTGSGYGTDFTFTISTVQAEDLAVYFCQQDYSSPYTFGGGTKLEIKR
Take B7: the “IC50 (M), in vitro potency (assay not described)” value in experiment [12] was 2e-10 M.

B8: hIL-1α/bDVD3a-Ig (bispecific antibody, human IgG1, kappa)
heavy: not shown
light: DIVMTQSQRFMSTSVGDRVSVTCKASQNVGTNIAWYQQKPGQSPRALIYSASYRYSGVPDRFTGSGSGTDFTLTISNVQSVDLAEYFCQQYTRYPLTFGGGTKLEIKRTVAAPETTVTQSPASLSMAIGEKVTIRCITSTDIDVDMNWYQQKPGEPPKLLISQGNTLRPGVPSRFSSSGSGTDFVFIIENMLSEDVADYYCLQSDNLPLTFGAGTKLELKRTVAAPSVFIFPPSDEQLKSGTASVVCLLNNFYPREAKVQWKVDNALQSGNSQESVTEQDSKDSTYSLSSTLTLSKADYEKHKVYACEVTHQGLSSPVTKSFNRGEC
notes: 18F4.2C8 - short linker - 1B12.4H4 - C (a-b-C); also called hIL-1a/b DVD3a-Ig
Turning to B8, in experiment [6], the “Potency (IC50) M, MRC-5 bioassay” value was 0.75 nM. In addition, the values for the dissociation constant (Kd) in experiment [8] and in [9] were 0.837 nM and 63.7 nM, respectively.

B9: hIL-1α/bDVD6b-Ig (bispecific antibody, human IgG1, kappa)
heavy: not shown
light: QIVLTQSPAIMSASPGEKVTITCSASSSVSYMHWFQQKPGASPKLWIYSTSNLASGVPARFSGSGSGTSYSLTVSRMEAEDAATYYCQQRSTYPYTFGGGTKLEIKRTVAAPSVFIFPPQIVLTQSPALMSASPGEKVTMTCSASSSVNYMYWYQQKPRSSPKPWIYLTSNLASGVPARFSGSGSGTSYSLTISSMEAEDAATYYCQQWNSNPYTFGGGTKLEMKRTVAAPSVFIFPPSDEQLKSGTASVVCLLNNFYPREAKVQWKVDNALQSGNSQESVTEQDSKDSTYSLSSTLTLSKADYEKHKVYACEVTHQGLSSPVTKSFNRGEC
notes: 6B12.4F6 - long linker - 6H3.1A4.3E11 - C (b-a-C); also called hIL-1a/b DVD6b-Ig
For B9, the “Potency (IC50) M, MRC-5 bioassay” value is 1 nM in experiment [6] and 0.75 nM in [7]. Moreover, the figures for the equilibrium dissociation constant (Kd) in [8] and in experiment [9] were 0.82 nM and 0.697 nM, respectively.

B10: DVD1812LL (anti-IL12/IL18 DVD-Ig, 18-12-C, long linker) (bispecific antibody, human IgG1, kappa)
heavy: not shown
light: EIVMTQSPATLSVSPGERATLSCRASESISSNLAWYQQKPGQAPRLFIYTASTRATDIPARFSGSGSGTEFTLTISSLQSEDFAVYYCQQYNNWPSITFGQGTRLEIKRTVAAPSVFIFPPQSVLTQPPSVSGAPGQRVTISCSGSRSNIGSNTVKWYQQLPGTAPKLLIYYNDQRPSGVPDRFSGSKSGTSASLAITGLQAEDEADYYCQSYDRYTHPALLFGTGTKVTVLGTVAAPSVFIFPPSDEQLKSGTASVVCLLNNFYPREAKVQWKVDNALQSGNSQESVTEQDSKDSTYSLSSTLTLSKADYEKHKVYACEVTHQGLSSPVTKSFNRGEC
notes: also called DVD1812HC-LL / DVD1812LC-LL
In the case of B10, the dissociation constant (Kd) in experiment [2] was determined as 0.162 nM; in experiment [3] it was 0.113 nM. The “Potency (IC50, M), KG-1 bioassay (IFN-γ production)” value in [4] came out at 7.8e-11 M. The “Potency (IC50, M), IL-12-induced IFN-γ production by PHA blast cells” value in [5] was 1.18e-10 M.

B11: murine monoclonal antibody 1B12.4H4 (anti-hIL-1β) (antibody, V domains shown)
VH: QVHLKESGPGLVAPSQSLSITCTVSGFSLTDYGVSWIRQPPGKGLEWLGLIWGGGDTYYNSPLKSRLSIRKDNSKSQVFLKMNSLQTDDTAVYYCAKQRTLWGYDLYGMDYWGQGTSVTVSS
VL: ETTVTQSPASLSMAIGEKVTIRCITSTDIDVDMNWYQQKPGEPPKLLISQGNTLRPGVPSRFSSSGSGTDFVFIIENMLSEDVADYYCLQSDNLPLTFGAGTKLELKR
With B11, the “IC50 (M), MRC-5 bioassay” value in experiment [1] came to 5.3e-10 M.

B12: murine monoclonal antibody 6B12.4F6 (anti-hIL-1β) (antibody, V domains shown)
VH: EVQLQQSGPELVKTGTSVKISCKASGYSFTGYYMHWVRQSHGKSLEWIGYISCYNGFTSYNPKFKGKATFTVDTSSSTAYIQFSRLTSEDSAVYYCARSDYYGTNDYWGQGTTLTVSS
VL: QIVLTQSPAIMSASPGEKVTITCSASSSVSYMHWFQQKPGASPKLWIYSTSNLASGVPARFSGSGSGTSYSLTVSRMEAEDAATYYCQQRSTYPYTFGGGTKLEIKR
For B12, the “IC50 (M), MRC-5 bioassay” value in experiment [1] amounted to 3.2e-10 M.

B13: murine monoclonal antibody 18F4.2C8 (anti-hIL-1α) (antibody, V domains shown)
VH: EVQLQQSGAELVKPGASVKLSCTASGLNIKDTYMHWLKQRPEQGLEWIGRIDPANGNAKYDPRFLGKATITADTSSNTAYLQLSSLTSEDTAVYYCARGDGNFHFDYWGQGTTLTVSS
VL: DIVMTQSQRFMSTSVGDRVSVTCKASQNVGTNIAWYQQKPGQSPRALIYSASYRYSGVPDRFTGSGSGTDFTLTISNVQSVDLAEYFCQQYTRYPLTFGGGTKLEIKR
Consider B13, for which the “IC50 (M), MRC-5 bioassay” value in experiment [11] was 8.9e-11 M.
